Columns and labels:
[1] = target: T1, human MUC16 (mucin 16) (human); experiment: MSD ECL cell binding, RLU ratio OVCAR-3 vs SK-OV-3, 16.7 nM Ab; NS = ratio <2.5-fold
T1 construct: Endogenously expressed on human tumour cell lines; also called hMUC16
Description: The ability of anti-MUC16 antibodies to bind specifically to endogenously expressing MUC16 on the human ovarian carcinoma cell line (OVCAR-3) was evaluated via an electrochemiluminescence based detection assay (Meso Scale Discovery (MSD), Rockville, Md.). […] Detached cells were then washed once in 1×PBS supplemented with Ca²⁺/Mg²⁺ and counted (Cellometer Auto T4 cell counter, Nexcelom Bioscience, Lawrence, Mass.). Approximately 1.0×10⁴ cells were plated in MULTI-ARRAY 96-well carbon electrode plates (MSD) and incubated for 1 h at 37° C. […] Next, serial dilutions of anti-MUC16 or control antibodies (0.85 pM-50 nM) and no-antibody buffer controls were added to the plate-bound cells and incubated for 1 h at room temperature (RT). […] Plate-bound antibodies were detected with a SULFO-TAG™-conjugated anti-human kappa light chain antibody (Regeneron) or a SULFO-TAG™-conjugated anti-mouse IgG antibody (Jackson Immunoresearch, West Grove, Pa.) for 1 h at RT. Post-wash, plates were developed with Read Buffer (MSD) according to manufacturer's protocol and luminescent signals were recorded with a SECTOR Imager 6000 (MSD) instrument.
(§1) Luminescence intensity, measured in relative light units (RLU), for the two cell lines was recorded to indicate the binding intensity of each antibody.

[2] = target: T1, human MUC16 (mucin 16); experiment: MSD ECL cell binding, RLU ratio OVCAR-3 vs SK-OV-3, 1.9 nM Ab
Description: The ability of anti-MUC16 antibodies to bind specifically to endogenously expressing MUC16 on the human ovarian carcinoma cell line (OVCAR-3) was evaluated via an electrochemiluminescence based detection assay (Meso Scale Discovery (MSD), Rockville, Md.). […] Detached cells were then washed once in 1×PBS supplemented with Ca²⁺/Mg²⁺ and counted (Cellometer Auto T4 cell counter, Nexcelom Bioscience, Lawrence, Mass.). Approximately 1.0×10⁴ cells were plated in MULTI-ARRAY 96-well carbon electrode plates (MSD) and incubated for 1 h at 37° C. […] Next, serial dilutions of anti-MUC16 or control antibodies (0.85 pM-50 nM) and no-antibody buffer controls were added to the plate-bound cells and incubated for 1 h at room temperature (RT). Plates were then washed to remove the unbound antibodies using an AquaMax2000 plate washer (MDS Analytical Technologies, Sunnyvale, Calif.). Plate-bound antibodies were detected with a SULFO-TAG™-conjugated anti-human kappa light chain antibody (Regeneron) or a SULFO-TAG™-conjugated anti-mouse IgG antibody (Jackson Immunoresearch, West Grove, Pa.) for 1 h at RT. Post-wash, plates were developed with Read Buffer (MSD) according to manufacturer's protocol and luminescent signals were recorded with a SECTOR Imager 6000 (MSD) instrument.
as §1

[3] = target: T1, human MUC16 (mucin 16); experiment: cell-based or functional assay
[4] = target: T1, human MUC16 (mucin 16); experiment: FACS binding titration on OVCAR3-Luc (MUC16+) cells
Description: (§2) A. Briefly, flow cytometric analysis (i.e. fluorescence-activated cell sorting, or FACS) was utilized to determine binding of bispecific antibodies to Jurkat cells or cells expressing human MUC16, followed by detection with a phycoerythrin (PE)-labeled or APC-labeled anti-human IgG antibody. […] After incubation, the cells were washed twice with cold PBS containing 1% filtered FBS and a PE-conjugated or APC-conjugated anti-human secondary antibody was added to the cells and incubated for an additional 30 minutes. Wells containing no antibody or secondary only were also used as controls. After incubation, cells were washed, re-suspended in 200 μL cold PBS containing 1% filtered FBS and analyzed by flow cytometry on a BD FACS Canto II.
B. In separate experiments with analogous conditions to that described above, flow cytometric analysis (or FACS) was utilized to determine binding of select bispecific antibodies to Jurkat cells, PEO-1, OVCAR3-Luc and cynomolgus T cells. […]
For FACS analysis, cells were gated by forward scatter height vs. forward scatter area for single events selection, followed by side and forward scatters. The EC50 for cell binding titration was determined using PRISM™ software (GraphPad Software, Inc., La Jolla, Calif.). Values were calculated using 4-parameter non-linear regression analysis. […]

[5] = target: T1, human MUC16 (mucin 16); experiment: FACS binding titration on PEO-1 (MUC16+) cells
Description: as §2
B. In separate experiments with analogous conditions to that described above, flow cytometric analysis (or FACS) was utilized to determine binding of select bispecific antibodies to Jurkat cells, PEO-1, OVCAR3-Luc and cynomolgus T cells. For the titration analysis, serial dilution of selected MUC16×CD3 bispecific antibodies, a first isotype control antibody (a human chimeric IgG4 antibody that binds an irrelevant human antigen with no cross-reactivity to human or cynomolgus CD3) and a second isotype control antibody (a human chimeric IgG4 antibody that binds an irrelevant human antigen with no cross-reactivity to human MUC16), ranging from 66.6 nM to 0.001 nM.
For FACS analysis, cells were gated by forward scatter height vs. forward scatter area for single events selection, followed by side and forward scatters. The EC50 for cell binding titration was determined using PRISM™ software (GraphPad Software, Inc., La Jolla, Calif.). Values were calculated using 4-parameter non-linear regression analysis. (Liu, J., et al. 2005, Biotechnol Letters 27:1821-1827).

[6] = target: T1, human MUC16 (mucin 16); experiment: cell-based or functional assay; remark: listed apart in the source
[7] = target: T1, human MUC16 (mucin 16); experiment: cell-based or functional assay; remark: listed apart in the source
[8] = target: T1, human MUC16 (mucin 16); experiment: FACS binding titration on OVCAR3 (MUC16+) cells

Binder | Ratio anti-MUC16 Binding OVCAR-3/SK-OV-3 [1] [ratio] | Ratio anti-MUC16 Binding OVCAR-3/SK-OV-3 [2] [ratio] | OVCAR3-Luc cell depletion EC50 [3] [pM] | EC50 [4] [pM] | EC50 [5] [pM] | PEO-1 cell depletion EC50 [6] [pM] | OVCAR3 cell depletion EC50 [7] [pM] | EC50 [8] [pM]
H1H8808P (antibody, human IgG1, V domains shown, Human IgG1) VH: QVQLVESGGGVVQPGRSLRLSCVASGFTFSNYGIHWVRQAPGKGLEWVAVISDDGSFKFYADSVKGRFTISRDNSKNTLYLQMNSLRVEDSAVYHCAKWQHNWNDGGFDYWGQGTLVTVSS VL: EIVLTQSPDTLSLSPGERATLSCRASQSLSSNYLAWYRQKPGQAPRLLIYGISSRATGIPDRFSGSGSGTDFTLTISRLEPEDFAVYYCQQYGSSPWTFGQGTKVEIK | < 2.5 | 4 | – | – | – | – | – | –
BSMUC16/CD3-005 (bispecific antibody, V domains shown, Anti-MUC16 HCVR of H1H8767P, anti-CD3 HCVR CD3-VH-G20, common light chain of H1H8767P; also called anti-MUC16xCD3 bispecific antibody with CD3-VH-G20 arm; REGN4019) VH 1: QVQLVESGGGLVKPGGSLRLSCAASGFTFSNYYMSWVRQAPGKGLEWISYISGRGSTIFYADSVKGRITISRDNAKNSLFLQMNSLRAEDTAVYFCVKDRGGYSPYWGQGTLVTVSS VH 2: EVQLVESGGGLVQPGRSLRLSCAASGFTFDDYSMHWVRQAPGKGLEWVSGISWNSGSIGYADSVKGRFTISRDNAKNSLYLQMNSLRAEDTALYYCAKYGSGYGKFYYYGMDVWGQGTTVTVSS VL: not shown | – | – | 51.6 | 1470 | 2630 | 77.4 | – | –
H1H8767P (antibody, human IgG1, V domains shown, Human IgG1) VH: QVQLVESGGGLVKPGGSLRLSCAASGFTFSNYYMSWVRQAPGKGLEWISYISGRGSTIFYADSVKGRITISRDNAKNSLFLQMNSLRAEDTAVYFCVKDRGGYSPYWGQGTLVTVSS VL: not shown | < 2.5 | 4 | – | – | – | – | – | –
BSMUC16/CD3-001 (bispecific antibody, V domains shown, Anti-MUC16 HCVR of H1H8767P, anti-CD3 HCVR CD3-VH-G, common light chain of H1H8767P; also called anti-MUC16xCD3 bispecific antibody with CD3-VH-G arm) VH 1: QVQLVESGGGLVKPGGSLRLSCAASGFTFSNYYMSWVRQAPGKGLEWISYISGRGSTIFYADSVKGRITISRDNAKNSLFLQMNSLRAEDTAVYFCVKDRGGYSPYWGQGTLVTVSS VH 2: EVQLVESGGGLVQPGRSLRLSCAASGFTFDDYSMHWVRQAPGKGLEWVSGISWNSGSKGYADSVKGRFTISRDNAKNSLYLQMNSLRAEDTALYYCAKYGSGYGKFYHYGLDVWGQGTTVTVSS VL: not shown | – | – | 15.4 | 1320 | 3020 | 25.6 | 22.4 | 1200

Reference: US20180118848A1 (Regeneron, published 2018)
